Source: the supplement of paper PMC10065799, “High-throughput profiling of sequence recognition by tyrosine kinases and SH2 domains using bacterial peptide display” (eLife, 2023)

Tests used:
c-Src SH2 = test: SH2 binding enrichment of the phosphorylated peptide, bacterial display (enrichment ratio); higher = better substrate or ligand; peptides without Tyr show the background
SHP2-C SH2 = test: as above
Grb2 SH2 = Grb2 SH2 (UniProt P62993); test: as above
EPHB1 = EPHB1 (UniProt P54762); test: phosphorylation enrichment, bacterial display (enrichment ratio); higher = better substrate or ligand; peptides without Tyr show the background
EPHB1, sequence (P54762 whole entry, looked up): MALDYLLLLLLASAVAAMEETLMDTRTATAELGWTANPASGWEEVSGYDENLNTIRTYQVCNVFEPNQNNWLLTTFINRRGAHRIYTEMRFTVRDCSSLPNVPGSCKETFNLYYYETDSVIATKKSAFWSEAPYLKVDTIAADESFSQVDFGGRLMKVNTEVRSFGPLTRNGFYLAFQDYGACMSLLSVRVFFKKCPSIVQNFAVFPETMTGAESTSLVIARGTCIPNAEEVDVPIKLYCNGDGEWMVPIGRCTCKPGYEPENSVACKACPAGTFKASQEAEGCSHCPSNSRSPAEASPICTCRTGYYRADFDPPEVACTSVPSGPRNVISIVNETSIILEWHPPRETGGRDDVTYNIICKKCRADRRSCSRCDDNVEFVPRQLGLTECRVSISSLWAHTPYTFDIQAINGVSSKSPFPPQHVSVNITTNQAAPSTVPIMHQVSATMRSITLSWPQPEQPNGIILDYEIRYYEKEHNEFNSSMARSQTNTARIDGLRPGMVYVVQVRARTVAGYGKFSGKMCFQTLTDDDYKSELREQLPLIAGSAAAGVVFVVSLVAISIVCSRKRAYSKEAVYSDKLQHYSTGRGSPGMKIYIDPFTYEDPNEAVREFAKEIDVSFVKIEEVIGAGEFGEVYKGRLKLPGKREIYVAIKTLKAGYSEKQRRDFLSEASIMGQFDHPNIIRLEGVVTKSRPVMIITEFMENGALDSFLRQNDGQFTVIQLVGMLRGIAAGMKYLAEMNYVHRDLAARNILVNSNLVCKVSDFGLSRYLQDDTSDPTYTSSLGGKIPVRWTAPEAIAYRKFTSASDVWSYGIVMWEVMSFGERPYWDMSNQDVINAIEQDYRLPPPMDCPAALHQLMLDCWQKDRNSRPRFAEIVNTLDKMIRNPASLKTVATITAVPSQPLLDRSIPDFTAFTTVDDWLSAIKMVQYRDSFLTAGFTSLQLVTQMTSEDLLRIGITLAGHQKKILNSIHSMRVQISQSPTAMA

AncSZ = test: as above
MERTK = MERTK (UniProt Q12866); test: as above
EPHB2 = EPHB2 (UniProt P29323); test: as above
Fes = Fes (UniProt P07332); test: as above
Fes, sequence (P07332 whole entry, looked up): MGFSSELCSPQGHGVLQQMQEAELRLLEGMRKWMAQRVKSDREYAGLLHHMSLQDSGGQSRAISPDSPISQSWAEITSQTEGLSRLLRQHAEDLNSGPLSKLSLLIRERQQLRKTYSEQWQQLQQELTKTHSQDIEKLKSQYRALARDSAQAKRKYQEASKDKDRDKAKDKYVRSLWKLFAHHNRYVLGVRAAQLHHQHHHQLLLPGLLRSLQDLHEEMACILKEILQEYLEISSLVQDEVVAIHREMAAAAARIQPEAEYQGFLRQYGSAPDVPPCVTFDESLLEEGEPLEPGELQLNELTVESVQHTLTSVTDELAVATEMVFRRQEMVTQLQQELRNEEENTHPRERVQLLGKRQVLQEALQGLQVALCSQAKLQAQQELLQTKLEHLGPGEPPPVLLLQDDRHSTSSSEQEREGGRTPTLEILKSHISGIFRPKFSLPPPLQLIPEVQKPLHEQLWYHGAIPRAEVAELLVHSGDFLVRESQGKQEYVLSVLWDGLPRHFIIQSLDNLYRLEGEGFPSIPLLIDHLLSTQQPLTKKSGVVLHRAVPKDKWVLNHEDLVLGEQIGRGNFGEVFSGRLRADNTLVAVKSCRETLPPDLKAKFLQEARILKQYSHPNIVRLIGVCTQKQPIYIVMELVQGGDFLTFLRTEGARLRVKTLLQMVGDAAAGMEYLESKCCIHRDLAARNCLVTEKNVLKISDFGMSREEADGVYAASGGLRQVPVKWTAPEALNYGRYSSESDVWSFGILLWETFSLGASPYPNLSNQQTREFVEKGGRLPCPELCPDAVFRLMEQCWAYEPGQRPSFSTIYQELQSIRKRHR

Fer (mouse) = test: as above
FGFR1 = FGFR1 (UniProt P11362); test: as above
FGFR1, sequence (P11362 whole entry, looked up): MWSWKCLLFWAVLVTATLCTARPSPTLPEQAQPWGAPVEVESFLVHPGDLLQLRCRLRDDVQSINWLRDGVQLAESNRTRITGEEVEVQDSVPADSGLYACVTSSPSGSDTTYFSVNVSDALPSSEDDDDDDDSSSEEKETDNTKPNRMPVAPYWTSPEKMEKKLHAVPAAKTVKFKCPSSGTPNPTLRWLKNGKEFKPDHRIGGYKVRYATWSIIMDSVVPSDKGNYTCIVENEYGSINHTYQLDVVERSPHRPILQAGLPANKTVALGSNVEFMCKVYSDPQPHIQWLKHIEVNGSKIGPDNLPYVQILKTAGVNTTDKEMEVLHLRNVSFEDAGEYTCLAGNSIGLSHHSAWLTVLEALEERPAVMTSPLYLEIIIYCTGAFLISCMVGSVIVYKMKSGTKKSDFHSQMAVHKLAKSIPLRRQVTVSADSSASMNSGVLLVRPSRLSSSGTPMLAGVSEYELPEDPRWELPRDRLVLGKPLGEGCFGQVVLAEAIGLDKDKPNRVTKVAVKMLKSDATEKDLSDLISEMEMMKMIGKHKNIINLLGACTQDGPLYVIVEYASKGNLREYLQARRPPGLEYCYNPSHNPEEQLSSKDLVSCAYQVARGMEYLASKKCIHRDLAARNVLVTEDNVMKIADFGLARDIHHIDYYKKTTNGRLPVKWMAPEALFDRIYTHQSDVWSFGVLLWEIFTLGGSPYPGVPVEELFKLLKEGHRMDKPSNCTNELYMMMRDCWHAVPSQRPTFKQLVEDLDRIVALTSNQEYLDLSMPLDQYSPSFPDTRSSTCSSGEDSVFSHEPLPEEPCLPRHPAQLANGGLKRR

Hck = Hck (UniProt P08631); test: as above
Hck, sequence (P08631 whole entry, looked up): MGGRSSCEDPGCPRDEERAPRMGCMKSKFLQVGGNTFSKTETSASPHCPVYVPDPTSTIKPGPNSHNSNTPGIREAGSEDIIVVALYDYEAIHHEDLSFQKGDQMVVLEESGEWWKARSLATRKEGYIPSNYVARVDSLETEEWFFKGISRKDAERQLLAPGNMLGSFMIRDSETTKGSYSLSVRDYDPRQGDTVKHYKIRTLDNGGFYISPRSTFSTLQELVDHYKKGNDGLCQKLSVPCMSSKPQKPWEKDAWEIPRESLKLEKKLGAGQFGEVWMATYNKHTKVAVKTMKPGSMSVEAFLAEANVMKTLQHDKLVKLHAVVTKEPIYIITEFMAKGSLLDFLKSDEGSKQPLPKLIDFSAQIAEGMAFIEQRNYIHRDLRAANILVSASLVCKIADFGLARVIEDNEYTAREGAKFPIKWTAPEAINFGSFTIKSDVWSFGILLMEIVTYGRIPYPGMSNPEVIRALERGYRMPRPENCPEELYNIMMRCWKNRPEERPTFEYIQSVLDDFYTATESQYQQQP

Fyn = Fyn (UniProt P06241); test: as above
Fyn, sequence (P06241 whole entry, looked up): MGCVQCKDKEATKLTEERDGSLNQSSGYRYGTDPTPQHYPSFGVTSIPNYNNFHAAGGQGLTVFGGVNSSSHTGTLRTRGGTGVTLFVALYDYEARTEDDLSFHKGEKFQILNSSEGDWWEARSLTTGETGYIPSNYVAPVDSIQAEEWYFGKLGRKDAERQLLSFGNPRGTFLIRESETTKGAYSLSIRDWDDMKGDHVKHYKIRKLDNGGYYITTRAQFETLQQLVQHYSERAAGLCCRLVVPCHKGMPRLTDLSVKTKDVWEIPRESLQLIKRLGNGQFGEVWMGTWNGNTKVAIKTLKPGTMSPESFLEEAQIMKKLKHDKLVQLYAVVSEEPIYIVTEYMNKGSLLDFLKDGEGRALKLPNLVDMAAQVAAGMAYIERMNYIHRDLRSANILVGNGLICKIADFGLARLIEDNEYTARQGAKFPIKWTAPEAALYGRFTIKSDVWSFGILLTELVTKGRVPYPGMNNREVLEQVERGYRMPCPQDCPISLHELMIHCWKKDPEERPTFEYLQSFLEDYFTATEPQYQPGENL

FGFR3 = FGFR3 (UniProt P22607); test: as above
FGFR3, sequence (P22607 whole entry, looked up): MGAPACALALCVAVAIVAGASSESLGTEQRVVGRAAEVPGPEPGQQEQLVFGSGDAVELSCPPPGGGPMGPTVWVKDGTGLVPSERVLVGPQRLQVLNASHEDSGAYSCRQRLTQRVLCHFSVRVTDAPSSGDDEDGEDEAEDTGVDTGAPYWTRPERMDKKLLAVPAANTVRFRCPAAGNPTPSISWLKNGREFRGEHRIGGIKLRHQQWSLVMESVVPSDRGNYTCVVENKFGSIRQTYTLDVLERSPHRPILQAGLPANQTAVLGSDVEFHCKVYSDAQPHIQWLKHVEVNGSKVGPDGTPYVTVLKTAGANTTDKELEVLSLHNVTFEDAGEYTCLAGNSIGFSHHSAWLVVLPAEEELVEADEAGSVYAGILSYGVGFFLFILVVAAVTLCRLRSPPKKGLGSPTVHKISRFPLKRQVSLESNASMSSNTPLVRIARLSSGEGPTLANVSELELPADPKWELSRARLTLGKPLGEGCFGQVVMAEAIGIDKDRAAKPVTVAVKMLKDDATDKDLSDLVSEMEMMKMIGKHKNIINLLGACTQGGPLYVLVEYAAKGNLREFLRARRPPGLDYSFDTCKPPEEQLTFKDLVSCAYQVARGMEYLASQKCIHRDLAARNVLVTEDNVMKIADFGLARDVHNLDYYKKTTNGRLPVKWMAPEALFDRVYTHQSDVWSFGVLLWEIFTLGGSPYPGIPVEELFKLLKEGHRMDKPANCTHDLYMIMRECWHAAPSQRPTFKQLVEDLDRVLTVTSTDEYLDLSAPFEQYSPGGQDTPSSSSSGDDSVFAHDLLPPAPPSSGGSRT

c-Src = test: as above
c-Abl (mouse) = test: as above
Jak2 = Jak2 (UniProt O60674); test: as above
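Wherever SH2 binding enrichment of the phosphorylated peptide, bacterial display is given: peptide library displayed on the E. coli surface as eCPX fusions, selected cells deep-sequenced, score is each peptide's frequency after selection divided by its frequency in the input.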
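Wherever phosphorylation enrichment, bacterial display is given: 11-residue human phosphosite peptides and single-mutation variants displayed on the E. coli surface, counted by deep sequencing, each peptide's frequency after selection divided by its frequency in the unselected input library; frequency after pTyr selection over input frequency; kinase dosed for 20-30% of maximal phosphorylation in three min.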

Grb2 SH2, sequence (P62993 whole entry, looked up): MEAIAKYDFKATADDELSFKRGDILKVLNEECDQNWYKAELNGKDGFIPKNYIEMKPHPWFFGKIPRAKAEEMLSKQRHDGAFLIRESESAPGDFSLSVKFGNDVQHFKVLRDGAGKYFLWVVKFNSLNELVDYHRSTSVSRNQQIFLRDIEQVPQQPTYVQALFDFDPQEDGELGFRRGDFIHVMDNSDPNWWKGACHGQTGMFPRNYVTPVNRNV

Sequence	SH2 binding enrichment (c-Src SH2)	SH2 binding enrichment (SHP2-C SH2)	SH2 binding enrichment (Grb2 SH2)	phosphorylation enrichment (EPHB1)	phosphorylation enrichment (AncSZ)	phosphorylation enrichment (MERTK)	phosphorylation enrichment (EPHB2)	phosphorylation enrichment (Fes)	phosphorylation enrichment (Fer (mouse))	phosphorylation enrichment (FGFR1)	phosphorylation enrichment (Hck)	phosphorylation enrichment (Fyn)	phosphorylation enrichment (FGFR3)	phosphorylation enrichment (c-Src)	phosphorylation enrichment (c-Abl (mouse))	phosphorylation enrichment (Jak2)
ETDPRYFDEEF [AKT1_Y437_T435P]	0.507	0.501	0.946	0.625	1.36	0.483	0.604	1.31	0.6	0.548	0.611	0.565	0.787	0.563	0.886	1.29
ETDSEYVKLSK [C7orf57_Y70_A74S]	0.753	0.588	1.1	0.524	1.01	0.435	0.63	1.13	0.499	0.516	0.604	0.533	0.667	0.451	0.695	1.01
ETESPYQELQG [TYROBP_Y91]	0.61	0.543	0.635	0.624	1.24	0.669	0.646	1.39	0.673	0.91	0.9	0.775	0.834	1.52	0.83	1.3
ETLLFYGFRRS [POR_Y564_C566Y_YF]	0.356	0.458	0.749	0.504	0.871	0.631	0.404	1.01	0.405	0.58	0.544	0.431	0.535	0.514	0.542	0.745
ETRWNYHFEVV [GCNT3_Y267_K266N]	0.592	0.646	0.761	0.971	1.38	0.398	0.496	1.65	0.568	0.563	0.439	0.449	0.893	0.433	0.904	1.23
EVDETYVPKKF [ALB_Y521_E525K]	0.613	0.775	1.06	0.685	0.947	0.404	0.372	0.952	0.371	0.385	0.446	0.454	0.518	0.408	0.607	1.01
EVQKDYEHLFK [PAM16_Y77_N76D]	0.592	0.662	0.805	0.511	0.885	0.462	0.525	0.804	0.421	0.498	0.514	0.478	0.582	0.491	0.62	0.71
EVVGRYSLHNA [MLH1_Y183_V185L]	0.488	0.767	0.802	0.421	0.478	0.405	0.368	0.671	0.33	0.502	0.411	0.382	0.424	0.364	0.371	0.445
EWQQTYTFDSG [JUP_Y20_YF]	0.677	0.799	0.881	0.494	1.06	0.668	0.485	0.904	0.425	0.965	0.78	3.03	1.02	5.44	0.546	1.02
EYFDGYWEYSV [ITGA2B_Y265_G267E]	0.465	0.758	0.876	2.02	4.06	2	3.58	1.72	1.22	13.8	4.33	5.41	12	6.02	1.54	5.73
EYHRLYEEYTR [PIK3R1_Y467_D464H]	1.86	0.718	0.96	3.87	1.45	2.48	5.18	0.898	2.31	2.52	5.42	5.5	1.61	4.19	0.653	0.978
FAASSYSFSDL [EMD_Y59_S54F]	0.825	0.631	0.864	0.643	0.813	0.78	0.517	1.15	0.547	0.548	0.64	0.558	0.663	0.639	0.707	0.849
FADGVYLALEE [DUOX2_Y70_Q71L_YF]	0.558	0.623	0.849	1.19	1.63	0.641	0.991	1.04	0.584	0.881	1.51	2.15	1.02	2.47	0.647	0.968
FADTAYNYRHG [PAH_Y166_I164T]	0.421	0.973	0.723	0.533	0.672	0.35	0.362	0.831	0.552	0.899	0.514	0.456	0.601	0.449	0.46	0.509
FAKTQYPDIFA [CRX_Y63_V66I_YF]	0.456	0.529	0.849	0.426	0.667	0.489	0.373	0.922	0.517	0.378	0.387	0.434	0.528	0.415	0.542	0.483
FASALYGQRRS [FGF11_Y162_R163G_YF]	0.511	0.457	0.659	0.343	0.724	0.516	0.415	0.682	0.505	0.364	0.903	0.444	0.442	0.641	0.47	0.616
FDAHIYEGRVI [PRKCD_Y64]	0.713	0.654	0.913	0.544	0.929	0.47	0.609	0.91	2.12	0.546	4.25	1.68	0.574	2.08	0.636	0.639

Sequence	SH2 binding enrichment (c-Src SH2)	SH2 binding enrichment (SHP2-C SH2)	SH2 binding enrichment (Grb2 SH2)	phosphorylation enrichment (EPHB1)	phosphorylation enrichment (AncSZ)	phosphorylation enrichment (MERTK)	phosphorylation enrichment (EPHB2)	phosphorylation enrichment (Fes)	phosphorylation enrichment (Fer (mouse))	phosphorylation enrichment (FGFR1)	phosphorylation enrichment (Hck)	phosphorylation enrichment (Fyn)	phosphorylation enrichment (FGFR3)	phosphorylation enrichment (c-Src)	phosphorylation enrichment (c-Abl (mouse))	phosphorylation enrichment (Jak2)
FDRREYSRFEK [ITGB7_Y758_YF]	0.513	0.633	0.793	0.415	0.602	0.47	0.519	0.666	0.392	0.452	0.454	0.331	0.526	0.411	0.596	0.577
FEEDSYSHIMA [FDPS_Y388_YF]	0.864	0.479	0.718	0.551	1.33	0.458	0.593	1.23	1.07	1.01	0.972	0.634	1.01	0.721	0.671	1.06
FEEDSYSHVMA [FDPS_Y388_I391V_YF]	0.584	0.724	0.983	0.696	1.57	0.631	0.482	1.3	1.42	0.934	0.646	0.511	0.901	0.779	0.731	1.14
FEEDSYVERSQ [RET_Y905_K907E_YF]	0.512	0.618	0.992	0.67	1.18	0.415	0.621	1.26	0.575	0.508	0.457	0.504	0.731	0.526	0.866	1.08
FEELVYETVRV [FSHB_Y76_K72E]	0.514	0.702	0.884	4.38	3.82	4.67	5.12	6.25	12.8	2.21	6.88	7.8	1.82	5.16	11.5	0.843
FEHVGYTTLNR [CHN1_Y148_YF]	5.21	18.8	0.917	0.393	0.654	0.406	0.395	0.805	0.445	0.426	0.602	0.448	0.458	0.466	0.68	0.527
FEKFLYFLPAS [DYNC2H1_Y346_H341Y_YF]	0.544	0.759	0.84	0.8	1.5	1.95	0.735	1.48	0.55	0.474	0.884	0.733	0.852	0.76	0.896	2.67
FEREQYADRTR [RBM4_Y355_A359T_YF]	0.539	0.694	0.859	0.398	0.625	0.426	0.478	0.622	0.436	0.46	0.459	0.412	0.429	0.419	0.588	0.582
FFDANCDGKEF [MAPRE2_Y162_Y162C_YF]	0.54	3.8	0.687	0.573	1.26	0.472	0.62	1.27	0.521	0.455	0.58	0.973	0.662	0.537	1.09	1.11
FFIMMYTGSNV [DNAJC13_Y1131]	0.508	0.732	0.9	0.681	1.3	0.477	0.664	1.29	0.589	0.619	0.505	0.433	0.782	0.4	0.779	1.06
FFIMMYTGSSV [DNAJC13_Y1131_N1135S]	0.455	0.851	0.703	0.62	0.97	0.325	0.468	1.07	0.456	0.366	0.438	0.316	0.533	0.342	0.743	0.824
FFRDGYMPRQF [GSS_Y270_YF]	0.509	0.784	1.02	0.415	0.634	0.493	0.4	0.82	0.407	0.597	0.455	0.393	0.55	0.345	0.482	0.592
FFSSEYHCVGG [CTSC_Y345_Y347C_YF]	0.709	0.8	0.87	2.37	2.38	0.651	2.15	1.17	0.545	7.57	1.66	1.58	4.98	2.1	1.88	1.08
FGGTVYHSPVS [PRC1_Y511]	1.72	2.81	0.851	0.535	0.894	0.444	0.418	0.687	0.434	0.473	0.851	0.588	0.525	0.771	3.96	0.555
FGHTFYNQAIM [MCCC2_Y196_R193H]	0.735	1.01	1.18	0.404	0.715	0.445	0.447	0.945	0.461	0.555	0.41	0.465	0.556	0.455	0.527	0.856
FGISGYLVDSV [MAP2K3_Y214]	0.656	0.883	0.949	0.377	0.982	0.459	0.501	1.2	0.529	0.478	0.471	0.467	0.631	0.504	0.722	0.97
